From patent publication US20230383005A1 (University of California, published 2023)

T1: recombinant CD46-Fc fusion (human CD46 domains 1 and 2) (human, UniProt P15529 35-159)
T1 construct: domain: domains 1 and 2; also called recombinant human CD46 protein fragment; recombinant CD46-Fc (domains 1 and 2); not shown: Fc from the pFUSE-Fc vector (Invivogen)
T1 sequence (looked up): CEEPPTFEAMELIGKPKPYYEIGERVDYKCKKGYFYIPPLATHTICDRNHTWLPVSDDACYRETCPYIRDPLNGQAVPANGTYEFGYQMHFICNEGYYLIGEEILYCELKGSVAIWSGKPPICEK


Legend:
[1] = biological target: human CD46 on the surface of living multiple myeloma cells (human), P15529; assay: cell-based or functional assay
[2] = biological target: human CD46 on the surface of living multiple myeloma cells (human) (UniProt P15529); assay: FACS on living MM1.S cells, MFI fitted with a one-site specific binding model
[3] = biological target: human CD46 on the surface of living multiple myeloma cells (human) (UniProt P15529); assay: FACS on living RPMI8226 cells, MFI fitted with a one-site specific binding model
[4] = biological target: T1, recombinant CD46-Fc fusion (human CD46 …); assay: BLItz label-free biosensor (ForteBio), sensor coated with YS5 IgG1, CD46-Fc (domains 1 and 2) in solution
[5] = biological target: T1, recombinant CD46-Fc fusion (human CD46 …); assay: BLItz biolayer interferometry, biosensor coated with YS5 IgG1, CD46-Fc at 100 to 400 nM; one value for all four runs

Kd [2] [nM] | Kd [3] [nM] | Kd [4] [nM] | kon [5] [M⁻¹ s⁻¹] | Binder | EC50, killing of primary MM patient cells at 48 hours (Annexin V/PI FACS) [1] [nM] | EC50, viability of MM1.S alone (luciferase, 96 hours) [1] [nM] | EC50, viability of MM1.S in the presence of BM61 stromal cells [1] [nM] | EC50, viability of MM1.S in the presence of HS5 stromal cells [1] [nM] | EC50, viability of MM1.S in the presence of HS27A stromal cells [1] [nM]
 |  |  |  | CD46-ADC (anti-CD46 IgG1 YS5 conjugated to MMAF via the mcvcpab linker) (antibody, V domains shown, here or on the partner: mcvcpab-MMAF on cysteines freed by TCEP reduction; average drug per antibody 3.3; sites not stated) VH: QVQLVQSGGGVVQPGRSLRLACAASGLTVNNYAMHWVRQAPGKGLEWVAVISYDGNNKYYADSVKGRFTISRDNSKNTLYLQMNSLRAEDTAVYYCAKGGGYFDLWGRGTLVTVSS VL: QSVLTQPPSVSGAPGQRVTISCTGSSSNIGAGYDVHWYQQLPGTAPKLLIYGNNNRPSGVPDRFSGSKSGTSASLAITGLQAEDEADYYCSSYTSGTWLFGGGTKLTVL | < 10 | 2.25 | 1.05 | 0.77 | 0.92
2.24 | 1.19 | 2.99 | 88000 | YS5 IgG1 (full-length human anti-CD46 IgG1) (antibody, V domains shown, also called anti-CD46 antibody; CD46 antibody) VH: QVQLVQSGGGVVQPGRSLRLACAASGLTVNNYAMHWVRQAPGKGLEWVAVISYDGNNKYYADSVKGRFTISRDNSKNTLYLQMNSLRAEDTAVYYCAKGGGYFDLWGRGTLVTVSS VL: QSVLTQPPSVSGAPGQRVTISCTGSSSNIGAGYDVHWYQQLPGTAPKLLIYGNNNRPSGVPDRFSGSKSGTSASLAITGLQAEDEADYYCSSYTSGTWLFGGGTKLTVL |  |  |  |  | 
